This passage reports Kd and EC50 results from PMC9991911, “IMM0306, a fusion protein of CD20 mAb with the CD47 binding domain of SIRPα, exerts excellent cancer killing efficacy by activating both macrophages and NK cells via blockade of CD47-SIRPα interaction and FcɣR engagement by simultaneously binding to CD47 and CD20 of B cells” (Leukemia, 2022).

One experiment concerns the target CD47 (Biacore assay) (UniProt Q08722). The experiment in a line: SPR; Biacore assay; who was immobilised and the conditions not given. (In general: SPR reads the build-up and loss of mass on a sensor chip optically.)
Another experiment deals with CD20 (Biacore assay) (UniProt P11836). Described as above.
In experiment [1] the target is T1, CD20 on Raji-CD47KO cells (Homo sapiens (endogenous, Raji-CD47KO), UniProt P11836).
T1 construct: CD20, endogenous on Raji-CD47KO cells; also called CD20 target on Raji-CD47KO cells; CD20-positive cells (Raji-CD47KO); source: endogenous, on Raji-CD47KO cells (Raji with human CD47 knockout, in-house)
As to the kind of experiment: flow cytometry on cells; cultured cells (Jurkat; Raji-CD47KO; cells with both targets) stained with IMM0306, then secondary antibody anti-human IgG (Fc)-FITC; data analysed with GraphPad Prism 8.0. The note with it: one partner purified.

A further experiment addresses CD47/CD20 double targets. Described as above.
For experiment [2], the target named is CD47 on Jurkat cells (human (endogenous in Jurkat)) (UniProt Q08722). The experiment is described as above.
CD47 on Jurkat cells (human (endogenous in Jurkat)), sequence (Q08722 19-323): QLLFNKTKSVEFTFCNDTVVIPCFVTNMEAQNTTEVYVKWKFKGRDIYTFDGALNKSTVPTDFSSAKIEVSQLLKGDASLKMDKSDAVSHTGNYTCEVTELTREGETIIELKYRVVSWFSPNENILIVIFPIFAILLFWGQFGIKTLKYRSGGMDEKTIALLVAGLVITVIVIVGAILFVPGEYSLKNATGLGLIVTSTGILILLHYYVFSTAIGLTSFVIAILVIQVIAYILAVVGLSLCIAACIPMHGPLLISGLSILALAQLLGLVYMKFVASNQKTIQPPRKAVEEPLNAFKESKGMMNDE

CD47 (Biacore assay), sequence (Q08722 19-323): as above
CD20 (Biacore assay), sequence (P11836 whole entry): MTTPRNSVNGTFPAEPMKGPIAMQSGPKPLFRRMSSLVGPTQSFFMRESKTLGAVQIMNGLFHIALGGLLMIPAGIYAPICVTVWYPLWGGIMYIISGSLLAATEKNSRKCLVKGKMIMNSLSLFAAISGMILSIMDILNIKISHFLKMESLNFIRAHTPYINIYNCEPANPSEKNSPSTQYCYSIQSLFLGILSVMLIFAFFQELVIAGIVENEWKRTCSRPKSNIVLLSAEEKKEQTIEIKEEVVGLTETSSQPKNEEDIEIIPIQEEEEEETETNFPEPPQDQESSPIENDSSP
T1 sequence (P11836 whole entry): as above

B1: IMM0306, a fusion protein of CD20 mAb with the CD47 binding domain of SIRPα (bispecific antibody, V domains shown)
VH: QVQLQQPGAELVKPGASVKMSCKASGYTFTSYNMHWVKQTPGRGLEWIGAIYPGNGDTSYNQKFKGKATLTADKSSSTAYMQLSSLTSEDSAVYYCARSTYYGGDWYFNVWGAGTTVTVSA
VL: QIVLSQSPAILSASPGEKVTMTCRASSSVSYIHWFQQKPGSSPKPWIYATSNLASGVPVRFSGSGSGTSYSLTISRVEAEDAATYYCQQWTSNPPTFGGGTKHELK
notes: IgG1; only the SIRPα D1 part can be built; also called CD47xCD20 mAb trap; source: in-house developed CHO-K1 cell expression system; copies: 2 +
As usually defined, the Kd is the constant that tells how readily two partners part at equilibrium. High values mean weaker binding, low ones tighter binding. What is called EC50 is the concentration that produces a half-maximal response. A higher EC50 goes with a need for much substance. Take B1: the results for the Kd with CD47 (Biacore assay) and in the experiment with CD20 (Biacore assay) were 4.91 nM and 2.45 nM, respectively. For the same molecule, the EC50 in experiment [1] came out at 18.9 nM; with CD47/CD20 double targets, 11.5 nM; in experiment [2], 16.8 nM.
